Experimental data from PMC9009374.

Biological target: Venus-tagged carboxy-tail segment of CaV1.2 (UniProt P15381)
Test: FRET or BRET

UniProt P15381, sequence (P15381 1525-2171): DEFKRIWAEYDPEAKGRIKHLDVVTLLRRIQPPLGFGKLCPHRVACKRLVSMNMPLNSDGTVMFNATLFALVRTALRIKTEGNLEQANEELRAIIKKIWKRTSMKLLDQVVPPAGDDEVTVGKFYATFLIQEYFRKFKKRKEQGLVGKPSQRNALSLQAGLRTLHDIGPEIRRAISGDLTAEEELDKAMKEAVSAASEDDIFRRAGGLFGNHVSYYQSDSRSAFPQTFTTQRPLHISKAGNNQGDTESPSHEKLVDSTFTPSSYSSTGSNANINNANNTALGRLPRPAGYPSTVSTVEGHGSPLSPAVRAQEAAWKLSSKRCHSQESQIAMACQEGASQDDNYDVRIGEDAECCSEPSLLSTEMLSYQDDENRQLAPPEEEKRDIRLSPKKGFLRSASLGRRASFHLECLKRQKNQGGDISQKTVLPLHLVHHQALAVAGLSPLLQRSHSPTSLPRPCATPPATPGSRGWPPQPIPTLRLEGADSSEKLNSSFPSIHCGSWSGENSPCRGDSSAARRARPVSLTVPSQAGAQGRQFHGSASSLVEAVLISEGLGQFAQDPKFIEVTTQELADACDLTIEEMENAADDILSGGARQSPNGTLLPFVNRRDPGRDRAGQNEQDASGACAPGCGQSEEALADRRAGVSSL

## Cerulean-tagged calmodulin (CaM) (from UniProt P0DP23 1-149) (natural protein)
  stoichiometry N: 1
